Laboratory results published in publication PMC9482650, “Quantitative fragmentomics allow affinity mapping of interactomes” (Nature Communications, 2022).

T1: GRIP1_7, Q9Y3R0
T1 sequence (Q9Y3R0 999-1096, limits assumed, looked up): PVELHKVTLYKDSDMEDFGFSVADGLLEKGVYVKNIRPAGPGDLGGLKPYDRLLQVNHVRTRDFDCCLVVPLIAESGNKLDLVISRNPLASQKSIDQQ

T2: MPP7, Q5T2T1
T2 sequence (Q5T2T1 134-230, limits assumed, looked up): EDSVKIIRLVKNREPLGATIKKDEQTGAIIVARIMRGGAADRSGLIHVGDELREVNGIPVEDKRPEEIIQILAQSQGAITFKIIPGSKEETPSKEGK

T3: LRRC7, Q96NW7
T3 sequence (Q96NW7 1440-1537, limits assumed, looked up): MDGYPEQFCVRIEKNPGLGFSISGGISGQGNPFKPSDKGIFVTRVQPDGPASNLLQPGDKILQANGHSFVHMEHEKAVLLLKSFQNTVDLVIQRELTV

T4: NHERF3_3, Q5T2W1
T4 sequence (Q5T2W1 238-333, limits assumed, looked up): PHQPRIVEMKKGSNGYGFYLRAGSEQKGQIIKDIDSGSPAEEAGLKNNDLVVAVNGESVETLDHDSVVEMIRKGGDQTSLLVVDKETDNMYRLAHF

T5: GRIP1_3, Q9Y3R0
T5 sequence (Q9Y3R0 247-346, limits assumed, looked up): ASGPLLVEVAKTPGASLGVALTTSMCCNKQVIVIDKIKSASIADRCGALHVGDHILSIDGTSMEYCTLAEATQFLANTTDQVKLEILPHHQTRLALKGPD

T6: PCLO, Q9Y6V0
T6 sequence (Q9Y6V0 4491-4600, limits assumed, looked up): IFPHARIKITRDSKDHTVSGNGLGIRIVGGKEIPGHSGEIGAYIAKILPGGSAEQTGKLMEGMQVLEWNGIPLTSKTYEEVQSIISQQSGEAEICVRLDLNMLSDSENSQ

T7: MPDZ_5, O75970
T7 sequence (O75970 695-796, limits assumed, looked up): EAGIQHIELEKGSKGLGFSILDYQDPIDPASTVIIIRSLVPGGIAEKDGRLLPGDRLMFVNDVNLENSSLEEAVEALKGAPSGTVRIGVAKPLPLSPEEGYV

T8: NHERF3_4, Q5T2W1
T8 sequence (Q5T2W1 373-468, limits assumed, looked up): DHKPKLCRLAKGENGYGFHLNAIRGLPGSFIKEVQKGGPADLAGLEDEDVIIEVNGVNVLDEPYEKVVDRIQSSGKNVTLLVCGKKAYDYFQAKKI

T9: SNTA1, Q13424
T9 sequence (Q13424 82-180, limits assumed, looked up): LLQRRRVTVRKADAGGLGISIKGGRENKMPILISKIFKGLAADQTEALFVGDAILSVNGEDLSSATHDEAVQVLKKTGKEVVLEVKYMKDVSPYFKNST

T10: SYNJ2BP, P57105
T10 sequence (P57105 8-110, limits assumed, looked up): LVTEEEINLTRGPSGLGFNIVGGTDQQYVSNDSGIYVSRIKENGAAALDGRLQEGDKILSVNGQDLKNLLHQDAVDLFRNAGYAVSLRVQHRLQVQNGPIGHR

T11: TX1BP3, O14907
T11 sequence (O14907 10-122, limits assumed, looked up): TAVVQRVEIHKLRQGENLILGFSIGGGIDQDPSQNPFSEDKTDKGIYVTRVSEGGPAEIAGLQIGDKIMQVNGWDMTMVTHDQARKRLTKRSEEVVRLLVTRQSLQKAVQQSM

T12: RHPN1, Q8TCX5
T12 sequence (Q8TCX5 508-602, limits assumed, looked up): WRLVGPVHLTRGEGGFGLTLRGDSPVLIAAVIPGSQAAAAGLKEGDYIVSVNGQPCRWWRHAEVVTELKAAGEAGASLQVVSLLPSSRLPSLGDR

B1: SDC4, P31431 (peptide)
chain: KKAPTNEFYA
B2: CLDN2, P57739 (peptide)
chain: FNSYSLTGYV
B3: ACOT8, O14734 (peptide)
chain: VKPQVSESKL

The binders below were run against T1, GRIP1_7, Q9Y3R0 (assay: holdup assay). Settings: plain residues with an end cap or a label only (N-terminal biotin on a linker: ado-ado).
Design: key: below the threshold = too weak to quantify, mostly under pKd 3.1 to 4

Row | Binder | pKd
1 | B1 | below the threshold
2 | B2 | below the threshold
3 | B3 | below the threshold

What follows are binders tested against T2, MPP7, Q5T2T1 (assay: holdup assay). Settings: plain residues with an end cap or a label only (N-terminal biotin on a linker: ado-ado).
Design: key: below the threshold = too weak to quantify, mostly under pKd 3.1 to 4

Row | Binder | pKd
4 | B1 | below the threshold
5 | B2 | below the threshold
6 | B3 | below the threshold

What follows are binders tested against T3, LRRC7, Q96NW7 (assay: holdup assay). Settings: plain residues with an end cap or a label only (N-terminal biotin on a linker: ado-ado).
Design: key: below the threshold = too weak to quantify, mostly under pKd 3.1 to 4

Row | Binder | pKd
7 | B1 | below the threshold
8 | B2 | below the threshold
9 | B3 | below the threshold

What follows are binders tested against LIMK2, P53671 (assay: holdup assay). Settings: plain residues with an end cap or a label only (N-terminal biotin on a linker: ado-ado).
Chain of LIMK2, P53671 (P53671 143-248): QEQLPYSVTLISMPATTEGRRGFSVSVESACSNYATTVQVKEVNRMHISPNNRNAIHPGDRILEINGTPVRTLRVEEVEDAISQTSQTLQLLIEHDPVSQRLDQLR
Design: key: below the threshold = too weak to quantify, mostly under pKd 3.1 to 4

Row | Binder | pKd
10 | B1 | below the threshold
11 | B2 | below the threshold
12 | B3 | below the threshold

What follows are binders tested against DLG2_3, Q15700 (assay: holdup assay). Settings: plain residues with an end cap or a label only (N-terminal biotin on a linker: ado-ado).
Design: key: below the threshold = too weak to quantify, mostly under pKd 3.1 to 4

Row | Binder | pKd
13 | B1 | 3.62
14 | B2 | below the threshold
15 | B3 | 3.74

The binders below were run against DLG1_2, Q12959 (assay: holdup assay). Settings: plain residues with an end cap or a label only (N-terminal biotin on a linker: ado-ado).
Chain of DLG1_2, Q12959 (Q12959 314-412): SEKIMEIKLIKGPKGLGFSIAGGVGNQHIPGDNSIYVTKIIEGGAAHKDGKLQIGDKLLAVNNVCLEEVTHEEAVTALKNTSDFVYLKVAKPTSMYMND
Design: key: below the threshold = too weak to quantify, mostly under pKd 3.1 to 4

Row | Binder | pKd
16 | B1 | below the threshold
17 | B2 | 3.49
18 | B3 | below the threshold

The binders below were run against HTRA1, Q92743 (assay: holdup assay). Settings: plain residues with an end cap or a label only (N-terminal biotin on a linker: ado-ado).
Chain of HTRA1, Q92743 (Q92743 360-477): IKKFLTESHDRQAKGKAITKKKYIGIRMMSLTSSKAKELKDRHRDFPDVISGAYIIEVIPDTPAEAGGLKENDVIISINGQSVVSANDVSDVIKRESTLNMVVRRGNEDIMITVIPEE
Design: key: below the threshold = too weak to quantify, mostly under pKd 3.1 to 4

Row | Binder | pKd
19 | B1 | 4.41
20 | B2 | 4.4
21 | B3 | below the threshold

Each binder was assayed against T4, NHERF3_3, Q5T2W1 (assay: holdup assay). Settings: plain residues with an end cap or a label only (N-terminal biotin on a linker: ado-ado).
Design: key: below the threshold = too weak to quantify, mostly under pKd 3.1 to 4

Row | Binder | pKd
22 | B1 | below the threshold
23 | B2 | below the threshold
24 | B3 | below the threshold

The binders below were run against MAGI2_4, Q86UL8 (assay: holdup assay). Settings: plain residues with an end cap or a label only (N-terminal biotin on a linker: ado-ado).
Chain of MAGI2_4, Q86UL8 (Q86UL8 772-865): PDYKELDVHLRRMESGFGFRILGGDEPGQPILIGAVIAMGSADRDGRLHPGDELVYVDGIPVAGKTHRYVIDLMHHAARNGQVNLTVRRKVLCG
Design: key: below the threshold = too weak to quantify, mostly under pKd 3.1 to 4

Row | Binder | pKd
25 | B1 | below the threshold
26 | B2 | 4.24
27 | B3 | below the threshold

Each binder was assayed against GRIP2_7, Q9C0E4 (assay: holdup assay). Settings: plain residues with an end cap or a label only (N-terminal biotin on a linker: ado-ado).
Chain of GRIP2_7, Q9C0E4 (Q9C0E4 934-1023): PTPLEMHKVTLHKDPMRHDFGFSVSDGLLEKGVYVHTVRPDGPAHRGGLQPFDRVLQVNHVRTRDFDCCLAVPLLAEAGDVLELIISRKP
Design: key: below the threshold = too weak to quantify, mostly under pKd 3.1 to 4

Row | Binder | pKd
28 | B1 | below the threshold
29 | B2 | below the threshold
30 | B3 | below the threshold

Each binder was assayed against T5, GRIP1_3, Q9Y3R0 (assay: holdup assay). Settings: plain residues with an end cap or a label only (N-terminal biotin on a linker: ado-ado).
Design: key: below the threshold = too weak to quantify, mostly under pKd 3.1 to 4

Row | Binder | pKd
31 | B1 | below the threshold
32 | B2 | below the threshold
33 | B3 | below the threshold

What follows are binders tested against Inadl_5, Q8NI35 (assay: holdup assay). Settings: plain residues with an end cap or a label only (N-terminal biotin on a linker: ado-ado).
Chain of Inadl_5, Q8NI35 (Q8NI35 673-780): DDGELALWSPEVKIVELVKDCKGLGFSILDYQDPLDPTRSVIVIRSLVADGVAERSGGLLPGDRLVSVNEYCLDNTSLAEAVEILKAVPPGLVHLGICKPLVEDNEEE
Design: key: below the threshold = too weak to quantify, mostly under pKd 3.1 to 4

Row | Binder | pKd
34 | B1 | below the threshold
35 | B2 | 3.6
36 | B3 | below the threshold

The binders below were run against DLG5_1, Q8TDM6 (assay: holdup assay). Settings: plain residues with an end cap or a label only (N-terminal biotin on a linker: ado-ado).
Chain of DLG5_1, Q8TDM6 (Q8TDM6 617-713): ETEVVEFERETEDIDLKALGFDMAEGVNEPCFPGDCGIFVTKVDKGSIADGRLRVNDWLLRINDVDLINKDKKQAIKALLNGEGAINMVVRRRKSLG
Design: key: below the threshold = too weak to quantify, mostly under pKd 3.1 to 4

Row | Binder | pKd
37 | B1 | below the threshold
38 | B2 | below the threshold
39 | B3 | below the threshold

What follows are binders tested against PDZRN4_1, Q6ZMN7 (assay: holdup assay). Settings: plain residues with an end cap or a label only (N-terminal biotin on a linker: ado-ado).
Chain of PDZRN4_1, Q6ZMN7 (Q6ZMN7 213-318): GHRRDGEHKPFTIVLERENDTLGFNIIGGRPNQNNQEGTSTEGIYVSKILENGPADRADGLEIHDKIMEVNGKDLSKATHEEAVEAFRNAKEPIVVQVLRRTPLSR
Design: key: below the threshold = too weak to quantify, mostly under pKd 3.1 to 4

Row | Binder | pKd
40 | B1 | below the threshold
41 | B2 | 3.49
42 | B3 | 3.83

The binders below were run against T6, PCLO, Q9Y6V0 (assay: holdup assay). Settings: plain residues with an end cap or a label only (N-terminal biotin on a linker: ado-ado).
Design: key: below the threshold = too weak to quantify, mostly under pKd 3.1 to 4

Row | Binder | pKd
43 | B1 | below the threshold
44 | B2 | below the threshold
45 | B3 | below the threshold

What follows are binders tested against GRID2IP_2, A4D2P6 (assay: holdup assay). Settings: plain residues with an end cap or a label only (N-terminal biotin on a linker: ado-ado).
Chain of GRID2IP_2, A4D2P6 (A4D2P6 272-370): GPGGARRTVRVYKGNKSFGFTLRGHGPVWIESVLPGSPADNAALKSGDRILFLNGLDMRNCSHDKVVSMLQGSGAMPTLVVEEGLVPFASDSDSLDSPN
Design: key: below the threshold = too weak to quantify, mostly under pKd 3.1 to 4

Row | Binder | pKd
46 | B1 | below the threshold
47 | B2 | 3.68
48 | B3 | 3.55

What follows are binders tested against DLG2_2, Q15700 (assay: holdup assay). Settings: plain residues with an end cap or a label only (N-terminal biotin on a linker: ado-ado).
Design: key: below the threshold = too weak to quantify, mostly under pKd 3.1 to 4

Row | Binder | pKd
49 | B1 | below the threshold
50 | B2 | below the threshold
51 | B3 | below the threshold

Each binder was assayed against T7, MPDZ_5, O75970 (assay: holdup assay). Settings: plain residues with an end cap or a label only (N-terminal biotin on a linker: ado-ado).
Design: key: below the threshold = too weak to quantify, mostly under pKd 3.1 to 4

Row | Binder | pKd
52 | B1 | below the threshold
53 | B2 | below the threshold
54 | B3 | below the threshold

The binders below were run against T8, NHERF3_4, Q5T2W1 (assay: holdup assay). Settings: plain residues with an end cap or a label only (N-terminal biotin on a linker: ado-ado).
Design: key: below the threshold = too weak to quantify, mostly under pKd 3.1 to 4

Row | Binder | pKd
55 | B1 | below the threshold
56 | B2 | below the threshold
57 | B3 | below the threshold

The binders below were run against MAGI2_3, Q86UL8 (assay: holdup assay). Settings: plain residues with an end cap or a label only (N-terminal biotin on a linker: ado-ado).
Chain of MAGI2_3, Q86UL8 (Q86UL8 600-682): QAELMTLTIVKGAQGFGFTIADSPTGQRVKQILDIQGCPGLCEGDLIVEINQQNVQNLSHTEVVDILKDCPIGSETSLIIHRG
Design: key: below the threshold = too weak to quantify, mostly under pKd 3.1 to 4

Row | Binder | pKd
58 | B1 | below the threshold
59 | B2 | 3.63
60 | B3 | below the threshold

Each binder was assayed against T9, SNTA1, Q13424 (assay: holdup assay). Settings: plain residues with an end cap or a label only (N-terminal biotin on a linker: ado-ado).
Design: key: below the threshold = too weak to quantify, mostly under pKd 3.1 to 4

Row | Binder | pKd
61 | B1 | below the threshold
62 | B2 | 3.64
63 | B3 | below the threshold

These binders were tested against T10, SYNJ2BP, P57105 (assay: holdup assay). Settings: plain residues with an end cap or a label only (N-terminal biotin on a linker: ado-ado).
Design: key: below the threshold = too weak to quantify, mostly under pKd 3.1 to 4

Row | Binder | pKd
64 | B1 | below the threshold
65 | B2 | 3.88
66 | B3 | 3.75

These binders were tested against T11, TX1BP3, O14907 (assay: holdup assay). Settings: plain residues with an end cap or a label only (N-terminal biotin on a linker: ado-ado).
Design: key: below the threshold = too weak to quantify, mostly under pKd 3.1 to 4

Row | Binder | pKd
67 | B1 | 3.85
68 | B2 | 4.3
69 | B3 | below the threshold

Each binder was assayed against MAST1, Q9Y2H9 (assay: holdup assay). Settings: plain residues with an end cap or a label only (N-terminal biotin on a linker: ado-ado).
Chain of MAST1, Q9Y2H9 (Q9Y2H9 962-1065): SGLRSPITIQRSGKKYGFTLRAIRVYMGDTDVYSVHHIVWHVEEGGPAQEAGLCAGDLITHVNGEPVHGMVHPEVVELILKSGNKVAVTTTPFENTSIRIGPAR
Design: key: below the threshold = too weak to quantify, mostly under pKd 3.1 to 4

Row | Binder | pKd
70 | B1 | below the threshold
71 | B2 | 3.94
72 | B3 | 4.77

These binders were tested against T12, RHPN1, Q8TCX5 (assay: holdup assay). Settings: plain residues with an end cap or a label only (N-terminal biotin on a linker: ado-ado).
Design: key: below the threshold = too weak to quantify, mostly under pKd 3.1 to 4

Row | Binder | pKd
73 | B1 | below the threshold
74 | B2 | below the threshold
75 | B3 | 4.07
